Reference: patent publication US20250230240A1 (LAVA THERAPEUTICS N V, published 2025)
Substitutions are numbered along the chain they refer to. In names and notes the source's numbering stands. Each block holds one molecule with its values, some of them ahead of it.

Legend:
[1] = target: Vγ9Vδ2 T cell receptor on expanded primary human Vγ9Vδ2 T cells (human) (UniProt Q99603); test: cell-based or functional assay
[2] = target: Recombinant human Vγ9Vδ2-Fc fusion protein (human) (UniProt Q99603); test: BLI (Octet RED96), Vγ9Vδ2-Fc captured on anti-human Fc sensors, VHH as analyte, 1:1 fit; mean of at least three measurements +/- SD
[3] = target: Recombinant human Vγ9Vδ2-Fc fusion protein (human) (UniProt Q99603); test: BLI (Octet), single VHH on recombinant Vγ9Vδ2 TCR protein
[4] = target: Recombinant human Vγ9Vδ2-Fc fusion protein (human) (UniProt Q99603); test: BLI (Octet), single VHH on recombinant Vγ9Vδ2 TCR
[5] = target: T1, recombinant purified CD123-Fc fusion protein (Bio-Techne/R&D Systems) (human, UniProt P26951 19-305, limits assumed); test: BLI (Octet Red96e), CD123-Fc on anti-human IgG Fc capture sensors; measured twice, SD 0.7
T1 construct: Bought protein; also called recombinant CD123; not shown: Fc part of the bought fusion protein
T1 sequence (looked up): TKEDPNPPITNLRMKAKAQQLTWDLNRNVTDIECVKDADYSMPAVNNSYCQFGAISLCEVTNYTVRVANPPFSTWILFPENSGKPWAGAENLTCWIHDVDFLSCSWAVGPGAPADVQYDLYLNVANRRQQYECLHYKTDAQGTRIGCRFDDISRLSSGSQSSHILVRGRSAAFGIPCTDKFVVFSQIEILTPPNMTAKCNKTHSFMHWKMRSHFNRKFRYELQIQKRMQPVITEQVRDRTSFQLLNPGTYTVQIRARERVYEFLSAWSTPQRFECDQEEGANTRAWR
Description: Different sensors were then dipped in different concentrations of humanized 1D2-5C8var1 variants, starting at 50 nM and two-fold dilutions thereof; dilutions were made in 10x kinetic buffer (10×KB) provided by the supplier. From the obtained sensorgrams, the kinetic association- and dissociation rate constants were determined by curve fitting. The association- and dissociation rate constants, when fitting was possible, were used to calculate the affinity of the humanized 1D2-5C8var1 variants for binding to CD123. […] For reference, the non-humanized (parental) 1D2 was included in these experiments.

[6] = target: Vγ9Vδ2 T cell receptor on expanded primary human Vγ9Vδ2 T cells (human), Q99603; test: cell-based or functional assay
[7] = target: T1, recombinant purified CD123-Fc fusion …; test: BLI (Octet Red96e), CD123-Fc on anti-human IgG Fc capture sensors; measured twice, SD 0.4
[8] = target: T1, recombinant purified CD123-Fc fusion …; test: BLI (Octet Red96e), CD123-Fc on anti-human IgG Fc capture sensors; *low binding (>20 nM), one measurement only
[9] = target: T1, recombinant purified CD123-Fc fusion …; test: BLI (Octet Red96e), CD123-Fc on anti-human IgG Fc capture sensors; measured twice, SD 1.5
[10] = target: T1, recombinant purified CD123-Fc fusion …; test: BLI (Octet Red96e), CD123-Fc on anti-human IgG Fc capture sensors; measured twice, SD 7.5
[11] = target: T1, recombinant purified CD123-Fc fusion …; test: BLI (Octet Red96e), CD123-Fc on anti-human IgG Fc capture sensors; measured twice, SD 4.3
[12] = target: T1, recombinant purified CD123-Fc fusion …; test: BLI (Octet Red96e), CD123-Fc on anti-human IgG Fc capture sensors; measured twice, SD 0.5

Chain of Vγ9Vδ2 T cell receptor on expanded primary human Vγ9Vδ2 T cells (human) (Q99603 21-122, stated change not applied, chain 1 of 2): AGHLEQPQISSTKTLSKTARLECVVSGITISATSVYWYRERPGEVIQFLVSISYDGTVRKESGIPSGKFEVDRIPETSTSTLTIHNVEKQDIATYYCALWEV
Chain of Vγ9Vδ2 T cell receptor on expanded primary human Vγ9Vδ2 T cells (human) (A0JD36 20-115, stated change not applied, chain 2 of 2, further chain): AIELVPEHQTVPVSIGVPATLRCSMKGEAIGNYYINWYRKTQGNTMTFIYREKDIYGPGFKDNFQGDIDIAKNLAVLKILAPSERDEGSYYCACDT
Chain of Vγ9Vδ2 T cell receptor on expanded primary human Vγ9Vδ2 T cells (human), Q99603 (Q99603 21-122, stated change not applied, chain 1 of 2): as the sequence (Q99603 21-122, stated change not applied, chain 1 of 2) above
Chain of Vγ9Vδ2 T cell receptor on expanded primary human Vγ9Vδ2 T cells (human), Q99603 (A0JD36 20-115, stated change not applied, chain 2 of 2, further chain): as the sequence (A0JD36 20-115, stated change not applied, chain 2 of 2, further chain) above

B7: SEQ ID NO 1 (Table 12): non-humanized (parental) anti-CD123 VHH 1D2 (VHH)
VHH: EVQLVESGGGLVQAGGSLRLSCAASGRTASSYVMGWFRQAPGKEREFVAVINWNGDSTYYTDSVKGRFAISRDNAKNTVYLQMNSLKPEDTAVYYCAADTRREWYRDGYWGPPARYEYDYRGQGTQVTVSS
notes: also called parental 1D2
Kd [5]: 3.1 nM

B9: SEQ ID NO 26 (Table 12): humanized 1D2 variant as bispecific VHH with 5C8var1 (bispecific antibody)
chain: EVQLVESGGGLVQPGGSLRLSCAASGRTASSYVMGWFRQAPGKEREFVSVINWNGDSTYYADSVKGRFTISRDNSKNTLYLQMNSLRAEDTAVYYCAADTRREWYRDGYWGPPARYEYDYRGQGTQVTVSSGGGGSEVQLLESGGGSVQPGGSLRLSCAASGRPFSNYAMSWFRQAPGKEREFVSAISWSGGSTSYADSVKGRFTISRDNSKNTLYLQMNSLRAEDTAVYYCAAQFSGADYGFGRLGIRGYEYDYWGQGTQVTVSS
Kd [7]: 7.2 nM

B10: SEQ ID NO 33 (Table 12): humanized 1D2 variant as bispecific VHH with 5C8var1 (bispecific antibody)
chain: B9 chain with G35S, E44G, R45L, F47W, S49A, L79V, Q126L
Kd [8]: 44.1 nM

B11: SEQ ID NO 30 (Table 12): humanized 1D2 variant as bispecific VHH with 5C8var1 (bispecific antibody)
chain: B9 chain with G35S, S49A, L79V, Q126L
Kd [9]: 7.7 nM

B12: SEQ ID NO 29 (Table 12): humanized 1D2 variant as bispecific VHH with 5C8var1 (bispecific antibody)
chain: B9 chain with L11V, G35S, F47W, S49A, Q126T
Kd [10]: 20 nM

B13: SEQ ID NO 28 (Table 12): humanized 1D2 variant as bispecific VHH with 5C8var1 (bispecific antibody)
chain: B9 chain with G35S, F47W, S49A, L79V, Q126L
Kd [11]: 14.9 nM

B14: SEQ ID NO 31 (Table 12): humanized 1D2 variant as bispecific VHH with 5C8var1 (bispecific antibody)
chain: B9 chain with F37V, E44G, R45L, F47W, Q126L
Kd [8]: 29.1 nM

B15: SEQ ID NO 27 (Table 12): humanized 1D2 variant as bispecific VHH with 5C8var1 (bispecific antibody)
chain: B9 chain with F37V, F47W, Q126L
Kd [8]: 24.5 nM

B16: SEQ ID NO 34 (Table 12): humanized 1D2 variant as bispecific VHH with 5C8var1 (bispecific antibody)
chain: B9 chain with P14A, F47W, S49A, A61T, T69A, S75A, L79V
Kd [12]: 2.6 nM

The next lines start with results.

EC50 degranulation (CD107A+ Vγ9Vδ2 T cells, 4 h, A431 target cells) [1]: 0.01 nM
Molecule: bispecific VHH 7D12-5C8 (non-humanized) (bispecific antibody)
EC50 cytotoxicity (A431 tumour cell kill, 24 h) [1]: 0.009 nM

Kd [2]: 0.81 nM
B1: VHH 5C8var1 (VHH)
VHH: EVQLLESGGGSVQPGGSLRLSCAASGRPFSNYAMSWFRQAPGKEREFVSAISWSGGSTSYADSVKGRFTISRDNSKNTLYLQMNSLRAEDTAVYYCAAQFSGADYGFGRLGIRGYEYDYWGQGTQVTVSS
modifications: Y105 partly sulfated (as found for 5C8 and for 1D12var5-5C8var1)

Kd [2]: 1.59 nM
B2: VHH 5C8var1-Y105S (VHH)
VHH: B1 VHH with Y105S

Kd [3]: 1.2 nM
B3: VHH 5C8var1-Y105F/R109A (VHH)
VHH: B1 VHH with Y105F, R109A

fold reduction of affinity against 5C8var1-Y105F [4]: 10 fold
Kd [3]: 9.2 nM
B4: VHH 5C8var1-Y105F/G108A (VHH)
VHH: B1 VHH with Y105F, G108A

Kd [3]: 0.82 nM
B5: VHH 5C8var1-Y105F/R109K (VHH)
VHH: B1 VHH with Y105F, R109K

Kd [3]: 0.74 nM
Kd [2]: 0.78 nM
B6: VHH 5C8var1-Y105F (VHH)
VHH: B1 VHH with Y105F

EC50 degranulation (CD107A+ Vγ9Vδ2 T cells, 4 h, A431 target cells) [6]: 0.011 nM
B8: bispecific VHH 7D12var8-5C8var1-Y105F (bispecific antibody)
chain: EVQLVESGGGSVQPGGSLRLSCAASGRTSRSYGMGWFRQAPGKEREFVSGISWRGDSTGYADSVKGRFTISRDNAKNTVDLQMNSLRAEDTAVYYCAAAAGSAWYGTLYEYDYWGQGTLVTVSSGGGGSEVQLLESGGGSVQPGGSLRLSCAASGRPFSNYAMSWFRQAPGKEREFVSAISWSGGSTSYADSVKGRFTISRDNSKNTLYLQMNSLRAEDTAVYYCAAQFSGADFGFGRLGIRGYEYDYWGQGTQVTVSS
EC50 cytotoxicity (A431 tumour cell kill, 24 h) [6]: 0.0025 nM
